# In patent US20120073001A1, “METHODS AND COMPOSITIONS FOR […] OR […] […]” (THE JOHNS HOPKINS UNIVERSITY, published 2012):
# Molecular target: T1, mouse MrgprC11, endogenous in wild-type DRG neurons (mouse)
# T1 chain: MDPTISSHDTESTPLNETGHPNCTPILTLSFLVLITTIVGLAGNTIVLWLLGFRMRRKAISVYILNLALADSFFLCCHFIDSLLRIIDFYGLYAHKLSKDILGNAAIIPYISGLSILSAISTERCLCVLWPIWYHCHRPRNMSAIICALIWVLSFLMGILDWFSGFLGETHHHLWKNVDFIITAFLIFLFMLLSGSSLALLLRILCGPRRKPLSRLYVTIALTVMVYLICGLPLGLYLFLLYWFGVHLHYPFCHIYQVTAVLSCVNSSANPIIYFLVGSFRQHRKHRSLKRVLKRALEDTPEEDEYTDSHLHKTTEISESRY
# Assay: cell-based or functional assay
binder,measurement,value
VGRPEWWMDYQKRYG [BAM8-22],"increased [Ca2+]i, calcium imaging of WT and Mrgpr-cluster deletion DRG neurons",3.6 % of WT DRG neurons
